Patent US20200338216A1

Biological target: murine PDL-1 (murine) (UniProt Q9EP73)
Experiment: bead based FACS of purified EVADER vectors with fluorescent-labelled antibody

Chain of UniProt Q9EP73 (Q9EP73 19-290): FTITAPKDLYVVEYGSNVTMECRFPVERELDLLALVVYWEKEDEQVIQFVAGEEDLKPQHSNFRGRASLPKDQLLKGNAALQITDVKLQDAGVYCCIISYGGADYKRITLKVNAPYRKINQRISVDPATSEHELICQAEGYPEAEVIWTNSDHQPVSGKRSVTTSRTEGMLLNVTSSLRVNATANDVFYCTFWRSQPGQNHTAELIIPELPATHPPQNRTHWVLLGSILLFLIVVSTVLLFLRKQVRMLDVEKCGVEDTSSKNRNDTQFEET

anti-murine PDL-1 (anti-PDL-1-PE-A, Abcam catalog number ab213480) (antibody)
percent of EVADER vector particles positive (level on the surface): 75.3%
